Experimental data published in US20210388087A1 (Chugai, published 2021).
Residue numbers refer to the chain shown, from its start. Numbers in names are those of the source.

B1: H183/L072 VH D52aE (antibody, name in Kabat numbering, V domains shown)
VH: QVQLVESGGGLVQPGRSLRLSCAASGFTFSNAWMHWVRQAPGKGLEWVAQIKEKGNAYAAYYAPSVKGRFTISRDDSKNSIYLQMNSLKTEDTAVYYCHYVHYASASTVLPAFGVDAWGQGTTVTVSS
VL: DIVMTQSPLSLPVTPGEPASISCQASQELVHMNRNTYLHWYQQKPGQAPRLLIYKVSNRFPGVPDRFSGSGSGTDFTLKISRVEAEDVGVYYCAQGTSVPFTFGQGTKLEIK
B2: H183/L072 VH F27Y (antibody, name in Kabat numbering, V domains shown)
VH: B1 VH with F27Y, E53D
VL: B1 VL
B3: H183/L072 VH F27E (antibody, name in Kabat numbering, V domains shown)
VH: B1 VH with F27E, E53D
VL: B1 VL
B4: H183/L072 VH F27K (antibody, name in Kabat numbering, V domains shown)
VH: B1 VH with F27K, E53D
VL: B1 VL
B5: H183/L072 VH F27Q (antibody, name in Kabat numbering, V domains shown)
VH: B1 VH with F27Q, E53D
VL: B1 VL
B6: H183/L072 VH F27L (antibody, name in Kabat numbering, V domains shown)
VH: B1 VH with F27L, E53D
VL: B1 VL
B7: H183/L072 VH D52aS (antibody, name in Kabat numbering, V domains shown)
VH: B1 VH with E53S
VL: B1 VL
B8: H183/L072 VH F27W (antibody, name in Kabat numbering, V domains shown)
VH: B1 VH with F27W, E53D
VL: B1 VL
B9: H183/L072 VH D52aQ (antibody, name in Kabat numbering, V domains shown)
VH: B1 VH with E53Q
VL: B1 VL
B10: H183/L072 VH D52aI (antibody, name in Kabat numbering, V domains shown)
VH: B1 VH with E53I
VL: B1 VL
B11: H183/L072 VH D52aL (antibody, name in Kabat numbering, V domains shown)
VH: B1 VH with E53L
VL: B1 VL
B12: H183/L072 VH D52aM (antibody, name in Kabat numbering, V domains shown)
VH: B1 VH with E53M
VL: B1 VL
B13: H183/L072 VH F29A (antibody, name in Kabat numbering, V domains shown)
VH: B1 VH with F29A, E53D
VL: B1 VL
B14: H183/L072 VH F27P (antibody, name in Kabat numbering, V domains shown)
VH: B1 VH with F27P, E53D
VL: B1 VL
B15: H183/L072 VH F27H (antibody, name in Kabat numbering, V domains shown)
VH: B1 VH with F27H, E53D
VL: B1 VL
B16: H183/L072 VH F29D (antibody, name in Kabat numbering, V domains shown)
VH: B1 VH with F29D, E53D
VL: B1 VL
B17: H183/L072 VH F29H (antibody, name in Kabat numbering, V domains shown)
VH: B1 VH with F29H, E53D
VL: B1 VL
B18: H183/L072 VH F27A (antibody, name in Kabat numbering, V domains shown)
VH: B1 VH with F27A, E53D
VL: B1 VL
B19: H183/L072 VH D52aT (antibody, name in Kabat numbering, V domains shown)
VH: B1 VH with E53T
VL: B1 VL
B20: H183/L072 VH D101I (antibody, name in Kabat numbering, V domains shown)
VH: B1 VH with E53D, D116I
VL: B1 VL
B21: H183/L072 VH D52aY (antibody, name in Kabat numbering, V domains shown)
VH: B1 VH with E53Y
VL: B1 VL
B22: H183/L072 VH D52aV (antibody, name in Kabat numbering, V domains shown)
VH: B1 VH with E53V
VL: B1 VL
B23: H183/L072 VH F27R (antibody, name in Kabat numbering, V domains shown)
VH: B1 VH with F27R, E53D
VL: B1 VL
B24: H183/L072 VH D52aR (antibody, name in Kabat numbering, V domains shown)
VH: B1 VH with E53R
VL: B1 VL
B25: H183/L072 VH D101L (antibody, name in Kabat numbering, V domains shown)
VH: B1 VH with E53D, D116L
VL: B1 VL
B26: H183/L072 VH F27I (antibody, name in Kabat numbering, V domains shown)
VH: B1 VH with F27I, E53D
VL: B1 VL
B27: H183/L072 VH D52aW (antibody, name in Kabat numbering, V domains shown)
VH: B1 VH with E53W
VL: B1 VL
B28: H183/L072 VH D101A (antibody, name in Kabat numbering, V domains shown)
VH: B1 VH with E53D, D116A
VL: B1 VL
B29: H183/L072 VH D101M (antibody, name in Kabat numbering, V domains shown)
VH: B1 VH with E53D, D116M
VL: B1 VL
B30: H183/L072 VH D52aN (antibody, name in Kabat numbering, V domains shown)
VH: B1 VH with E53N
VL: B1 VL
B31: H183/L072 VH F29G (antibody, name in Kabat numbering, V domains shown)
VH: B1 VH with F29G, E53D
VL: B1 VL
B32: H183/L072 VH F29E (antibody, name in Kabat numbering, V domains shown)
VH: B1 VH with F29E, E53D
VL: B1 VL
B33: H183/L072 VH D52aF (antibody, name in Kabat numbering, V domains shown)
VH: B1 VH with E53F
VL: B1 VL
B34: H183/L072 VH F27M (antibody, name in Kabat numbering, V domains shown)
VH: B1 VH with F27M, E53D
VL: B1 VL
B35: H183/L072 VH F27T (antibody, name in Kabat numbering, V domains shown)
VH: B1 VH with F27T, E53D
VL: B1 VL
B36: H183/L072 VH F27V (antibody, name in Kabat numbering, V domains shown)
VH: B1 VH with F27V, E53D
VL: B1 VL
B37: H183/L072 VH D52aK (antibody, name in Kabat numbering, V domains shown)
VH: B1 VH with E53K
VL: B1 VL
B38: H183/L072 VH D52aP (antibody, name in Kabat numbering, V domains shown)
VH: B1 VH with E53P
VL: B1 VL
B39: H183/L072 VH F27N (antibody, name in Kabat numbering, V domains shown)
VH: B1 VH with F27N, E53D
VL: B1 VL
B40: H183/L072 VH F27G (antibody, name in Kabat numbering, V domains shown)
VH: B1 VH with F27G, E53D
VL: B1 VL
B41: H183/L072 VH D52aG (antibody, name in Kabat numbering, V domains shown)
VH: B1 VH with E53G
VL: B1 VL
B42: H183/L072 VH D52aH (antibody, name in Kabat numbering, V domains shown)
VH: B1 VH with E53H
VL: B1 VL
B43: H183/L072 VH D101P (antibody, name in Kabat numbering, V domains shown)
VH: B1 VH with E53D, D116P
VL: B1 VL
B44: H183/L072 VH F27S (antibody, name in Kabat numbering, V domains shown)
VH: B1 VH with F27S, E53D
VL: B1 VL
B45: H183/L072 VH F27D (antibody, name in Kabat numbering, V domains shown)
VH: B1 VH with F27D, E53D
VL: B1 VL

Target: T1, Human CD3eg linker (human)
T1 construct: Single chain: epsilon and gamma subunits of human CD3 joined by a 29-mer linker, Flag-tag at the C-terminus; also called recombinant human CD3
T1 chain: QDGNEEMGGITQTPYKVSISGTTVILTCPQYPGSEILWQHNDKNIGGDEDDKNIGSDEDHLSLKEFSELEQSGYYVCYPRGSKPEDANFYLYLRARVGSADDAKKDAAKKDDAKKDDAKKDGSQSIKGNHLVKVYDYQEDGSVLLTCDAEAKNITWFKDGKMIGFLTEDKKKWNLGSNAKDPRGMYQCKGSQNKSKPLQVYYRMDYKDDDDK
Assay: Biacore SPR, vs template H183/L072

| Binder | fold change of affinity |
| --- | --- |
| B1 | 0 fold |
| B2 | 0 fold |
| B3 | 0 fold |
| B4 | 0.3 fold |
| B5 | 0 fold |
| B6 | 0.4 fold |
| B7 | 0 fold |
| B8 | 0 fold |
| B9 | 0 fold |
| B10 | 0 fold |
| B11 | 0 fold |
| B12 | 0 fold |
| B13 | 0.2 fold |
| B14 | 0 fold |
| B15 | 0.1 fold |
| B16 | 0 fold |
| B17 | 0 fold |
| B18 | 0.2 fold |
| B19 | 0 fold |
| B20 | 0.6 fold |
| B21 | 0 fold |
| B22 | 0 fold |
| B23 | 0.2 fold |

| Binder | fold change of affinity |
| --- | --- |
| B24 | 0 fold |
| B25 | 2.3 fold |
| B26 | 0.6 fold |
| B27 | 0 fold |
| B28 | 0.8 fold |
| B29 | 0.7 fold |
| B30 | 0.1 fold |
| B31 | 0 fold |
| B32 | 0.1 fold |
| B33 | 0 fold |
| B34 | 0.5 fold |
| B35 | 0 fold |
| B36 | 0.3 fold |
| B37 | 0 fold |
| B38 | 0 fold |
| B39 | 0.4 fold |
| B40 | 0.5 fold |
| B41 | 0.2 fold |
| B42 | 0.3 fold |
| B43 | 0 fold |
| B44 | 0 fold |
| B45 | 0 fold |
